Reference: patent publication US20240124563A1 (NANJING ZAIMING PHARMACEUTICAL, published 2024)

Assays:
[1] = target: T1, human MSLN-R2-his protein (human, UniProt Q13421 391-486); assay: ELISA, antibody 1 nM
T1 construct: MSLN-R2 = Ser391-Asn486; also called hMSLN-R2-his; not shown: histidine tag

[2] = target: T2, human MSLN-R3-his protein (human, UniProt Q13421 487-598); assay: ELISA, antibody 1 nM
T2 construct: MSLN-R3 = Met487-Ser598; also called hMSLN-R3-his; not shown: histidine tag

[3] = target: T3, human MSLN-FL-his protein (human, UniProt Q13421 296-580); assay: ELISA, antibody 1 nM
T3 construct: also called hMSLN-FL-his; human MSLN full-length protein; not shown: histidine tag

[4] = target: T4, human MSLN-R1-his protein (human, UniProt Q13421 296-390); assay: ELISA, antibody 1 nM
T4 construct: MSLN-R1 = Glu296-Thr390; also called hMSLN-R1-his; not shown: histidine tag
T4 chain: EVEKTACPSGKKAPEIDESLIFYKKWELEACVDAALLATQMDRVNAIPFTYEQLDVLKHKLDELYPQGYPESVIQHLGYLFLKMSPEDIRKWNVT

[5] = target: T1, human MSLN-R2-his protein; assay: ELISA, antibody 1 nM; remark: listed apart in the source
[6] = target: T2, human MSLN-R3-his protein; assay: ELISA, antibody 1 nM; remark: listed apart in the source
[7] = target: T5, human MSLN-R3-3 polypeptide (purchased from GL Biochem, Cat. No. 406676) (human); assay: ELISA, antibody 1 nM
T5 construct: Printed as Val539-Val588; also called hMSLN-R3-3
T5 peptide: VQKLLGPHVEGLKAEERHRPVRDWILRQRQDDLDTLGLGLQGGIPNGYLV

[8] = target: T4, human MSLN-R1-his protein; assay: ELISA, antibody 100 nM
[9] = target: T1, human MSLN-R2-his protein; assay: ELISA, antibody 0.1 nM
[10] = target: T1, human MSLN-R2-his protein; assay: ELISA, antibody 100 nM
[11] = target: T2, human MSLN-R3-his protein; assay: ELISA, antibody 0.1 nM
[12] = target: T2, human MSLN-R3-his protein; assay: ELISA, antibody 100 nM
[13] = target: T4, human MSLN-R1-his protein; assay: ELISA, antibody 0.01 nM
[14] = target: T1, human MSLN-R2-his protein; assay: ELISA, antibody 0.01 nM
[15] = target: T2, human MSLN-R3-his protein; assay: ELISA, antibody 0.01 nM
[16] = target: T4, human MSLN-R1-his protein; assay: ELISA, antibody 0.001 nM
[17] = target: T1, human MSLN-R2-his protein; assay: ELISA, antibody 0.001 nM
[18] = target: T2, human MSLN-R3-his protein; assay: ELISA, antibody 0.001 nM
[19] = target: T1, human MSLN-R2-his protein; assay: ELISA, antibody 0.0001 nM
[20] = target: T2, human MSLN-R3-his protein; assay: ELISA, antibody 0.0001 nM
[21] = target: T4, human MSLN-R1-his protein; assay: ELISA, antibody 0 nM (blank)
[22] = target: T1, human MSLN-R2-his protein; assay: ELISA, antibody 0 nM (blank)
[23] = target: T2, human MSLN-R3-his protein; assay: ELISA, antibody 0 nM (blank)
[24] = target: T6, human MSLN-FL-his protein (human, UniProt Q13421 296-580); assay: competitive ELISA on MSLN-FL-His; other antibody: NB148-25 (3.m2)
T6 construct: Made in HEK293E cells, purified on nickel column; also called hMSLN-FL-his; not shown: histidine tag

[25] = target: T6, human MSLN-FL-his protein; assay: competitive ELISA on MSLN-FL-His; other antibody: NB148-35 (3.m4)
[26] = target: T6, human MSLN-FL-his protein; assay: competitive ELISA on MSLN-FL-His; other antibody: NB148-46 (3.m5)
[27] = target: T6, human MSLN-FL-his protein; assay: competitive ELISA on MSLN-FL-His; other antibody: NB149-31 (3.m7)
[28] = target: T6, human MSLN-FL-his protein; assay: competitive ELISA on MSLN-FL-His; other antibody: NB149-34 (3.m8)
[29] = target: T6, human MSLN-FL-his protein; assay: competitive ELISA on MSLN-FL-His; other antibody: NB149-70 (3.m9)

T2 sequence (Q13421 495-606): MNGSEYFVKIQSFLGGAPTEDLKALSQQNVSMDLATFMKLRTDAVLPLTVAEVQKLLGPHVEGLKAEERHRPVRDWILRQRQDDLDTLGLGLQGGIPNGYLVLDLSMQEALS
T1 sequence (Q13421 other isoform, or with tags, fused parts or gaps): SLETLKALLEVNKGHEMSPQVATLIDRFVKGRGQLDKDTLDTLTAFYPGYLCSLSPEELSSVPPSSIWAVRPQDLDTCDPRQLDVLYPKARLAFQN

B1: Tab107 (YP3, hIgG1) (antibody, V domains shown)
VH: QEQLVESGGGLVQPGASLTLTCTASGIDFSRYYMCWVRQAPGKGLEGIACIYIGGSGSTYYASWAKGRFTISKASSTTVTLQMTSLTAADTATYFCARGTNLNYIFRLWGPGTLVTVSS
VL: DVVMTQTPSPVSAAVGGTVTIKCQASQSINNGLAWYQQKPGQPPRLLIYSASNLESGVPSRFKGSGSGTEFTLTISDLECDDAATYYCQCIWDGNSYVNAFGGGTEVVVRT
notes: also called YP3 human IgG1 antibody
B1 was tested. Which OD450 nm [1] did it give?
The OD450 nm was 0.05.

And the OD450 nm [2]?
Its OD450 nm is 0.05.

And the OD450 nm [3]?
The OD450 nm was 1.74.

What about the OD450 nm [4] of the same binder?
Its OD450 nm is 0.05.

And the OD450 nm [5]?
The OD450 nm was 0.05.

And the OD450 nm [6]?
Its OD450 nm is 0.05.

And the OD450 nm [7]?
The OD450 nm was 0.07.

What about the OD450 nm [8] of the same binder?
Its OD450 nm is 0.08.

And the OD450 nm [9]?
The OD450 nm was 0.04.

And the OD450 nm [10]?
The OD450 nm was 0.09.

And the OD450 nm [11]?
The OD450 nm was 0.05.

What about the OD450 nm [12] of the same binder?
Its OD450 nm is 0.09.

And the OD450 nm [13]?
Its OD450 nm is 0.06.

And the OD450 nm [14]?
The OD450 nm was 0.04.

What about the OD450 nm [15] of the same binder?
The OD450 nm was 0.04.

What about the OD450 nm [16] of the same binder?
Its OD450 nm is 0.05.

And the OD450 nm [17]?
The OD450 nm was 0.05.

And the OD450 nm [18]?
The OD450 nm was 0.05.

What about the OD450 nm [19] of the same binder?
Its OD450 nm is 0.04.

What about the OD450 nm [20] of the same binder?
The OD450 nm was 0.05.

What about the OD450 nm [21] of the same binder?
Its OD450 nm is 0.05.

What about the OD450 nm [22] of the same binder?
The OD450 nm was 0.05.

What about the OD450 nm [23] of the same binder?
Its OD450 nm is 0.05.

And the inhibition rate [24]?
Its inhibition rate is 23%.

What about the inhibition rate [25] of the same binder?
Its inhibition rate is 26%.

What about the inhibition rate [26] of the same binder?
The inhibition rate was 7%.

What about the inhibition rate [27] of the same binder?
The inhibition rate was -10%.

And the inhibition rate [28]?
Its inhibition rate is -8%.

And the inhibition rate [29]?
The inhibition rate was -10%.
